B1: ZNF649 (parent)
chain: DECEKAYFYMSCLVKHKRIHSREK
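Note: lentivirally expressed fusions sorted by FACS into six bins by GFP to DsRed ratio, PSI derived from sequencing read proportions per bin multiplied by bin number.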

Variants of: B1
Test: protein stability index of a GFP-peptide fusion (GPS, HEK-293T) (PSI 1-6); higher = more stable
Settings: c terminus: a fixed tail appended
In the case of DECEKYYFYMSCLVKHKRIHSREK [A6Y], the protein stability index is reported as 1.76. Work on DECEKAYFYMSCLVDHKRIHSREK [K15D] yielded a protein stability index of 3.24. DECEKAYFYMSCLVLHKRIHSREK [K15L] gave a protein stability index of 2.15. DECEKAYFYMSCLVHHKRIHSREK [K15H] gave a protein stability index of 2.45. Work on DECEKAYFYMSCLVIHKRIHSREK [K15I] yielded a protein stability index of 2.18. With DECEKAYFYMSCLVEHKRIHSREK [K15E] the protein stability index was 2.54. In the case of DECEKAYFYMSCLVGHKRIHSREK [K15G], the protein stability index is reported as 2.29. Work on DECEKAYFYMSCLVFHKRIHSREK [K15F] yielded a protein stability index of 1.87. DECEKAYFYMSCLVAHKRIHSREK [K15A] gave a protein stability index of 2.56. With DECEKAYFYMSCLVCHKRIHSREK [K15C] the protein stability index was 2.41. With DECEKAYFYMSCLMKHKRIHSREK [V14M] the protein stability index was 2.18. Variant DECEKAYFYMSCLKKHKRIHSREK [V14K] has a protein stability index of 3.41. Variant DECEKAYFYMSCLGKHKRIHSREK [V14G] has a protein stability index of 2.9. With DECEKAYFYMSCLHKHKRIHSREK [V14H] the protein stability index was 3.86. DECEKAYFYMSCLQKHKRIHSREK [V14Q] gave a protein stability index of 3.05. In the case of DECEKAYFYMSCLRKHKRIHSREK [V14R], the protein stability index is reported as 3.12. Work on DECEKAYFYMSCLLKHKRIHSREK [V14L] yielded a protein stability index of 2.63. DECEKAYFYMSCLWKHKRIHSREK [V14W] showed a protein stability index of 1.64. DECEKAYFYMSCLIKHKRIHSREK [V14I] gave a protein stability index of 2.11. With DECEKAYFYMSCLAKHKRIHSREK [V14A] the protein stability index was 2.88. Variant DECEKAYFYMSCLPKHKRIHSREK [V14P] has a protein stability index of 3.27. For DECEKAYFYMSCLSKHKRIHSREK [V14S], the protein stability index was 3.65. In the case of DECEKAYFYMSCLYKHKRIHSREK [V14Y], the protein stability index is reported as 2.5. DECEKAYFYMSCLEKHKRIHSREK [V14E] showed a protein stability index of 3.38. DECEKAYFYMSCLDKHKRIHSREK [V14D] gave a protein stability index of 3.73. DECEKAYFYMSCLFKHKRIHSREK [V14F] gave a protein stability index of 1.78. DECEKAYFYMSCLTKHKRIHSREK [V14T] showed a protein stability index of 3.09. DECEKAYFYMSCLNKHKRIHSREK [V14N] gave a protein stability index of 3.53. In the case of DECEKAYFYMSCLCKHKRIHSREK [V14C], the protein stability index is reported as 2.33. DECEKAYFLMSCLVKHKRIHSREK [Y9L] gave a protein stability index of 2.35. Work on DECEKAYFRMSCLVKHKRIHSREK [Y9R] yielded a protein stability index of 3.9. DECEKAYFKMSCLVKHKRIHSREK [Y9K] gave a protein stability index of 3.73. DECEKAYFPMSCLVKHKRIHSREK [Y9P] showed a protein stability index of 3.78. Variant DECEKAYFEMSCLVKHKRIHSREK [Y9E] has a protein stability index of 3. Variant DECEKAYFTMSCLVKHKRIHSREK [Y9T] has a protein stability index of 3.94. With DECEKAYFWMSCLVKHKRIHSREK [Y9W] the protein stability index was 3.49. DECEKAYFVMSCLVKHKRIHSREK [Y9V] showed a protein stability index of 2.54. Variant DECEKAYFSMSCLVKHKRIHSREK [Y9S] has a protein stability index of 3.56. Variant DECEKAYFGMSCLVKHKRIHSREK [Y9G] has a protein stability index of 4.26. Work on DECEKAYFCMSCLVKHKRIHSREK [Y9C] yielded a protein stability index of 2.81. Variant DECEKAYFMMSCLVKHKRIHSREK [Y9M] has a protein stability index of 2.57. DECEKAYFQMSCLVKHKRIHSREK [Y9Q] showed a protein stability index of 3. Work on DECEKAYFIMSCLVKHKRIHSREK [Y9I] yielded a protein stability index of 2.42. Work on DECEKAYFFMSCLVKHKRIHSREK [Y9F] yielded a protein stability index of 2.66. With DECEKAYFDMSCLVKHKRIHSREK [Y9D] the protein stability index was 4.51. In the case of DECEKAYFHMSCLVKHKRIHSREK [Y9H], the protein stability index is reported as 3.03. Work on DECEKAYFAMSCLVKHKRIHSREK [Y9A] yielded a protein stability index of 3.71. DECEKAYFNMSCLVKHKRIHSREK [Y9N] showed a protein stability index of 3.93. Work on DECEKAYRYMSCLVKHKRIHSREK [F8R] yielded a protein stability index of 2.82. DECEKAYQYMSCLVKHKRIHSREK [F8Q] showed a protein stability index of 3.75. DECEKAYMYMSCLVKHKRIHSREK [F8M] showed a protein stability index of 3.36. Variant DECEKAYAYMSCLVKHKRIHSREK [F8A] has a protein stability index of 3.44. DECEKAYNYMSCLVKHKRIHSREK [F8N] showed a protein stability index of 3.7. For DECEKAYSYMSCLVKHKRIHSREK [F8S], the protein stability index was 3.78. In the case of DECEKAYYYMSCLVKHKRIHSREK [F8Y], the protein stability index is reported as 2.65. Work on DECEKAYLYMSCLVKHKRIHSREK [F8L] yielded a protein stability index of 2.48. DECEKAYTYMSCLVKHKRIHSREK [F8T] gave a protein stability index of 3.52. DECEKAYHYMSCLVKHKRIHSREK [F8H] gave a protein stability index of 3.79. DECEKAYKYMSCLVKHKRIHSREK [F8K] gave a protein stability index of 3.6. DECEKAYVYMSCLVKHKRIHSREK [F8V] gave a protein stability index of 3.23. For DECEKAYPYMSCLVKHKRIHSREK [F8P], the protein stability index was 4.1. In the case of DECEKAYGYMSCLVKHKRIHSREK [F8G], the protein stability index is reported as 4.02. DECEKAYWYMSCLVKHKRIHSREK [F8W] showed a protein stability index of 3.07. With DECEKAYDYMSCLVKHKRIHSREK [F8D] the protein stability index was 3.88. With DECEKAYEYMSCLVKHKRIHSREK [F8E] the protein stability index was 4.18. Variant DECEKAYIYMSCLVKHKRIHSREK [F8I] has a protein stability index of 2.67. With DECEKAYCYMSCLVKHKRIHSREK [F8C] the protein stability index was 2.96. DECEYAYFYMSCLVKHKRIHSREK [K5Y] gave a protein stability index of 1.82. DECEWAYFYMSCLVKHKRIHSREK [K5W] gave a protein stability index of 2.82. With DECETAYFYMSCLVKHKRIHSREK [K5T] the protein stability index was 2.64. For DECEVAYFYMSCLVKHKRIHSREK [K5V], the protein stability index was 1.81. For DECEQAYFYMSCLVKHKRIHSREK [K5Q], the protein stability index was 3.08. DECEPAYFYMSCLVKHKRIHSREK [K5P] gave a protein stability index of 3.51. With DECESAYFYMSCLVKHKRIHSREK [K5S] the protein stability index was 2.44. Variant DECERAYFYMSCLVKHKRIHSREK [K5R] has a protein stability index of 2.5. In the case of DECEKAYFYMGCLVKHKRIHSREK [S11G], the protein stability index is reported as 3.21. Variant DECEKAYFYMCCLVKHKRIHSREK [S11C] has a protein stability index of 2.13. Work on DECEKAYFYMNCLVKHKRIHSREK [S11N] yielded a protein stability index of 2.97. Variant DECEKAYFYMMCLVKHKRIHSREK [S11M] has a protein stability index of 2.37. DECEKAYFYMACLVKHKRIHSREK [S11A] gave a protein stability index of 2.07. With DECEKAYFYMPCLVKHKRIHSREK [S11P] the protein stability index was 3.24. With DECEKAYFYMFCLVKHKRIHSREK [S11F] the protein stability index was 1.66. Work on DECEKAYFYMHCLVKHKRIHSREK [S11H] yielded a protein stability index of 2.82. In the case of DECEKAYFYMWCLVKHKRIHSREK [S11W], the protein stability index is reported as 1.33. For DECEKAYFYMQCLVKHKRIHSREK [S11Q], the protein stability index was 3.03. Variant DECEKAYFYMTCLVKHKRIHSREK [S11T] has a protein stability index of 2.94. For DECEKAYFYMDCLVKHKRIHSREK [S11D], the protein stability index was 3.55. With DECEKAYFYMLCLVKHKRIHSREK [S11L] the protein stability index was 1.74. With DECEKAYFYMYCLVKHKRIHSREK [S11Y] the protein stability index was 2.68. Work on DECEKAYFYMRCLVKHKRIHSREK [S11R] yielded a protein stability index of 2.47. With DECEKAYFYMVCLVKHKRIHSREK [S11V] the protein stability index was 1.87. Work on DECEKAYFYMICLVKHKRIHSREK [S11I] yielded a protein stability index of 1.76. With DECEKAYFYMECLVKHKRIHSREK [S11E] the protein stability index was 2.62. With DECEKAYFYMKCLVKHKRIHSREK [S11K] the protein stability index was 2.

From the supplement of paper PMC10567573
